Consider five proteins from paper PMC3688963, “Biochemical Characterization of Hypothetical Proteins from Helicobacter pylori” (PLoS ONE, 2013).

Substrate in data set [1]: Nc1nc2c(ncn2[C@@H]2O[C@H](COP(=O)(O)OP(=O)(O)OP(=O)(O)O)[C@@H](O)[C@H]2O)c(=O)[nH]1
Put plainly: phosphate release, malachite green. In kind it is biochemical, Helicobacter pylori. The conditions noted are these: 10 mM MgCl2, 10% glycerol, 100 mM sodium acetate pH 6.0, 30°C. The text has this:
phosphate release, malachite green on HP1079

Substrate in data set [2]: Cc1cc(=O)oc2cc(NC(=O)[C@H](CCCNC(=N)N)NC(=O)[C@@H](N)Cc3ccccc3)ccc12
Put plainly: purified protein. The following applies: 100 mM sodium citrate pH 4.5, 30°C, 5 mM CaCl2, 0.1% Brij.

Substrate in data set [3]: [H][C@@]12COP(=O)(O)O[C@@]1([H])[C@@H](O)[C@H](n1cnc3c(=O)[nH]c(N)nc31)O2
Put plainly: alkaline phosphatase-coupled phosphate release, malachite green. In kind it is biochemical, Helicobacter pylori. The following applies: 0.1 mM MnCl2, pH 4.0-4.5, 30°C.

Substrate in data set [4]: O=[N+]([O-])c1ccc(OP(=O)(O)Oc2ccc([N+](=O)[O-])cc2)cc1
Put plainly: purified protein. The data set is classed as biochemical, Helicobacter pylori. The conditions noted are these: 1.0 mM MnCl2, 100 mM sodium citrate pH 4.5 (4.0 in Figure 1 legend), 30°C.

Substrate in data set [5]: Nc1ncnc2nc[nH]c12
The data set is described as follows: purified protein. In kind it is biochemical, Helicobacter pylori. The following applies: 100 mM HEPES pH 7.5, 30°C, native protein.

Substrate in data set [6]: Nc1nc2c(ncn2[C@@H]2O[C@H](COP(=O)(O)OP(=O)(O)OP(=O)(O)O)[C@@H](O)[C@H]2O)c(=O)[nH]1
The data set is described as follows: fluorimetric neopterin detection after iodine oxidation and alkaline phosphatase. In kind it is biochemical, Helicobacter pylori. The following applies: 100 mM sodium citrate pH 4.0, 30°C, 2.5 mM EDTA. An excerpt:
fluorimetric neopterin detection after iodine oxidation and alkaline phosphatase on HP0959

B1: HP1079 (Helicobacter pylori 26695) (protein)
chain: MIQSVRIKNFKNFKNTKIDGFTKLNIITGQNNAGKSNLLEALYYLVGKSMHPCTNVLEIYDNIRKEPLTSESKSLMFYGLDTKEEIQIVTTLDNNQTLDLQIKFIASENQKVIESQIIPTAEQTQMSSQLNFTLKKNNEEIYNDHLNIAKVPNFPPIPNQSGYNRQFKNFDSNQLQKLLPFESAVIIPSDVVYRQAHMIQAVSKICSNNQLEEELNKHLNQFDNNIQAISFNTNNQLKLKVKDIKEKVPLSVFGDGLKKYLHIVSAFMADNAKTIYIDEVENGLHFSRMRLLLKNTIDFINNNKDGNLQVFMTTHSQEFIEILDQVIREKDFAHQTKLFCLKQDDQYVIPRTYYGENLEYYFENEENLFG
notes: native protein captured with GTP-coated nano-particles; His6 recombinant also made
As a reminder, the Km is the concentration of substrate that gives half-maximal velocity. One may read the kcat as the maximal rate divided by the concentration of active sites. As usually defined, the kcat/Km is the second-order rate constant that governs catalysis at low substrate concentration. In the case of B1, in data set [1], the Km was 580 ± 50 µM, the kcat is 0.0095 ± 0.002 s⁻¹ and the kcat/Km was 20 M⁻¹ s⁻¹.

B2: HP1037 (Helicobacter pylori 26695) (protein)
chain: MKGLERESHFTLNENAMFFECAYSCDNALFLQLDDRSFFITDSRYTQEAKESVQPKNGVLAEVVESSDLVQSAIDLIVKSSVKKLFFDPNQVNLQTYKRLNSALGDKVALEGVPSYHRQKRIIKNEHEIQLLKKSQALNVEAFENFAEYVKKIFDEKESLSERYLQHKVKDFLTREGVYDLSFEPILALNANASKPHALPSAKDFLKAEHSILLDMGIKYERYCSDRTRTAFFDPKDFVFKREQSFKDKERQKIYDIVKEAQEKAISGIRAGMTGKEADSLARGVISDYGYGQYFTHSTGHGIGLDIHELPYISSRSETILEEGMVFSVEPGIYIPGFFGVRIEDLVVIKNSRSELL
In general, Vmax refers to the top rate of the reaction or transport when substrate is in excess. B2: in “purified protein [2]”, the Km stood at 7430 ± 360 µM, the Vmax is 750 µM/min, the kcat worked out at 0.17 s⁻¹ and the kcat/Km was 20 M⁻¹ s⁻¹.

B3: HP1042 (Helicobacter pylori 26695) (protein)
chain: MMQVYHLSHIDLDGYACQLVSKQFFKNIQCYNANYGREVSARIYEILNAIAQSKESEFLILVSDLNLNLNEAEYLQDKIQEHRLQNKNIQIQLLDHHISGKEVAESFHWYFLDINRCATKIVYEFLKKHYAILEPKNTTWLEPLVEMVNSVDIWDTQGYGFELGKVCMRMINQSSELNRFMFDDENRNYKLKLLEEVKNYLFLENAPVAYDNDLFKLKKIALGGDPDAETMDNISSNAQTHLLSLKKHDCSVYYQDKKGFLSYSMGGISVLANLFLTQNPDFDFYMDVNAKGNVSLRANGNCDVCELSQMCFNGGGHRNASGGKIDGFRESFNYRDIKEQIEEIFNNA
notes: native protein captured with cAMP-coated nano-particles; His6 recombinant also made
As to B3, in data set [3], the Km came to 820 ± 150 µM, the Vmax turned out to be 5130 µM/min, the kcat worked out at 15.9 ± 1.37 s⁻¹ and the kcat/Km was 19500 M⁻¹ s⁻¹. Besides, in the data set “purified protein [4]”, the Km was found to be 530 ± 40 µM, the Vmax came to 1130 µM/min, the kcat came out at 18.1 ± 0.2 s⁻¹ and the kcat/Km came out at 34100 M⁻¹ s⁻¹.

B4: HP0267 (native protein) (Helicobacter pylori 26695) (protein)
chain: MQEIIGASLVFLCNEKCEVLEDYGVVFDEKIVEIGDYQSLTLKYPHLKAQFFENSVLLPAFINAHTHFEFSNNKASFDYGSFSGWLGSVLNNGGAILENCQGAIQNAISTQLKSGVGSVGAISNHLIEVNLLKESPLNAVVFLEFLGSSYSLEKLKAFEAKFKELKDLEDKKLKAALAVHAPYSVQKDMALSVIQLAKDSQSLLSTHFLESLEELEWVENSKGWFENFYQHFLKESHFKSLYKGANDYIDMFKDTHTLFVHNQFASLEALKRIKSQVKNAFLITCPFSNRLLSGQALDLERTKEAGLSVSVATDGLSSNISLSLLDELRAFLLTHNMPLLELAKIALLGATRHGAKALALNNGEIEANKRADLSVFGFNEKFTKEQAILQFLLHAKEVECLFLGGKRVI
notes: native protein captured from H. pylori lysate with adenine-coated gold nano-particles, gel filtration; no tag
As for B4, in “purified protein [5]”, the Km was found to be 2040 ± 160 µM, the Vmax is 3 µM/min, the kcat stood at 0.00783 ± 0.00217 s⁻¹ and the kcat/Km was 4 M⁻¹ s⁻¹.

B5: HP0959 (Helicobacter pylori 26695) (protein)
chain: MALVKEVLVVLNRLSPFELQESWDNSGLNVGSENSEFSEIVACLEITLKIALNAPQNALIITHHPLIFKPLKTLNDEIYPGNILKILIQKNVSVISMHTNFDKTHLNKHFAHALLEFDGLVEKGLMLVKENANIEFDALVKKIKSSLGVGSLACVKSSQTIKDLAFVCGSGASMFSSLKAQSCLITGDVKYHDAMIAQSLGISLIDATHYYSERGFALIVAEILHSFNYLVTIENFKNPLQII
notes: native protein captured with GTP/dihydroneopterin triphosphate-coated nano-particles (co-captured with HP0803); His6 recombinant also active
As to B5, in data set [6], the Km came out at 40 ± 5 µM, the Vmax was found to be 1420 µM/min, the kcat is 43.2 ± 0.483 s⁻¹ and the kcat/Km amounted to 1.08e+06 M⁻¹ s⁻¹.
